Measured values: the supplement of paper PMC10126150
± gives the standard deviation of the averaged measurements.

system: ATP; assay: switch fluorescence ratio, 500 uM ATP over buffer (Cy3 cluster intensity, sum of 5 cycles each) (fold (ratio)); higher = stronger signal-on switching upon ATP binding; sequences stand for … in TCGTCGGCAGCGTCAGATGTGTATAAGAGACAGTTTTTTTTTTTTTTTTTTTTTTTTT…TC; conditions: aptamer strand: ATP DNA aptamer (quencher-CACCTGGGGGAGTATTGCGGAGGAAGG + anchor), 100 nM annealed; ATP concentration: 500 uM
Method in brief: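 Switching-strand clusters labelled with Cy3 on a modified Illumina MiSeq flow-cell were annealed to 100 nM quencher-labelled ATP aptamer, imaged in selection buffer, and re-imaged after 15 min with 500 uM ATP at 22 °C. This was done over five cycles with NaOH stripping and re-annealing in between. The fluorescence ratio is summed target-cycle over summed buffer-cycle Cy3 intensity per cluster, averaged per switch-domain sequence, excluding clusters outside 100-1000 RFU.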
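Also: ATP exposure 15 min at 22 °C before imaging.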

Row | Sequence | switch fluorescence ratio
1 | CAGATTATTT | 0.99 ± 0.015
2 | GTTTATGCAG | 0.968 ± 0.017
3 | CAGGGGAAGG | 1.04 ± 0.053
4 | ATTTCTTTTG | 1.02 ± 0.056
5 | TTTTTCACG | 1 ± 0.04
6 | ATGGGTTATG | 0.999 ± 0.016
7 | TTACGCCGTT | 0.9446 ± 0.0049
8 | TGAGGATCCA | 0.985 ± 0.013
9 | CATTAAAATT | 0.994 ± 0.028
10 | TTGGCGCTGG | 0.993 ± 0.026
11 | TTTGAGGATT | 1 ± 0.027
12 | ACTTGCACGT | 1.175 ± 0.0094
13 | GTCGGGGGGT | 1 ± 0.025
14 | GCTGGGCACA | 0.967 ± 0.03
15 | GGGATATAGG | 0.9937 ± 0.0021
16 | GCTAGAATAT | 1.02 ± 0.014
17 | CGTCTATTTG | 0.993 ± 0.023
18 | GATGGGTGAC | 0.992 ± 0.024
19 | GGGTTAGAGT | 0.993 ± 0.025
20 | AATAAAGGGA | 0.9841 ± 0.0045
21 | TGGATCTGCG | 1.01 ± 0.023
22 | GTGTGCCAGC | 0.969 ± 0.013
23 | CCGGGGTGGC | 1.16 ± 0.11
24 | AGGTAATATG | 0.9867 ± 0.0081
25 | TGAATTGCAT | 0.96601 ± 0.00064
26 | GTTTGGTATG | 0.988 ± 0.017

Row | Sequence | switch fluorescence ratio
27 | CGGCGGAACG | 0.966 ± 0.031
28 | ACGTTGGCGG | 1 ± 0.013
29 | TTTTTAAAG | 1.022 ± 0.0083
30 | CAGAGCCATA | 1.05 ± 0.013
31 | GGATAGGGGT | 1.05 ± 0.062
32 | TCGGGGCAGC | 0.998 ± 0.042
33 | TGGGGGACCT | 1.09 ± 0.1
34 | TGCCGGAATA | 1.38 ± 0.041
35 | ACGATCTGTG | 1.03 ± 0.033
36 | TACTTGGCCG | 1.01 ± 0.052
37 | TGATGCAAGT | 1.09 ± 0.032
38 | GCAGGATCCG | 0.99684 ± 0.00077
39 | AGGGGTTGTA | 0.971 ± 0.02
40 | AATTTGAGGG | 0.979 ± 0.016
41 | AAAACAGTTC | 1.04 ± 0.048
42 | AGGTTTAGTT | 0.993 ± 0.0065
43 | CGGAGTTAAT | 1.66 ± 0.048
44 | CGAAATATCT | 1.04 ± 0.058
45 | TGCGGGGGTA | 0.999 ± 0.019
46 | CAAAGGAGGT | 1.03 ± 0.096
47 | GGTGGATCTT | 1.03 ± 0.015
48 | AAGTGCAAGC | 1.04 ± 0.027
49 | TATTAGGGAC | 0.994 ± 0.032
50 | TTGTAAGGGT | 0.978 ± 0.017
51 | CAGGGCAGGG | 0.951 ± 0.028
52 | GGGATTAGGA | 0.995 ± 0.052

Row | Sequence | switch fluorescence ratio
53 | ATAATAGGTT | 0.986 ± 0.028
54 | TTATGTTAGT | 1.01 ± 0.056
55 | AGATTATAGG | 1.01 ± 0.018
56 | GAGCTTGGCA | 0.9859 ± 0.0058
57 | CTTTAAGTTG | 1.03 ± 0.029
58 | GTTAGCCGAA | 1.05 ± 0.032
59 | AGTCCGATGT | 1.04 ± 0.038
60 | TCAGTTAAGG | 0.9866 ± 0.0039
61 | ATTGATTGTG | 0.983 ± 0.026
62 | ATTTAAGTGC | 0.981 ± 0.049
63 | ACTGGCTCCT | 1.02 ± 0.056
64 | AGCCGTACTC | 1.2 ± 0.23
65 | CTCGATGTGA | 1.05 ± 0.071
66 | AAGGTGGTGG | 1.04 ± 0.0016
67 | TGGGTCTAAG | 0.9669 ± 0.0093
68 | CGAAGTGGGG | 1.01 ± 0.026
69 | ATATTAAAAT | 1.02 ± 0.021
70 | TGCTTGATGG | 0.9851 ± 0.0044
71 | TCAGTACGCA | 1.57 ± 0.095
72 | GGCGCACTGT | 1.02 ± 0.021
73 | TGCTAGGGGC | 1.07 ± 0.036
74 | TCTGGGAATT | 1.046 ± 0.0027
75 | CCATGTAAGA | 1.018 ± 0.0091
76 | GAACCACGA | 1.05 ± 0.019
77 | ATGATTCTGT | 1 ± 0.021
